Results on three molecules are retold here after publication PMC8263008, “Inhibition of Fibrinolysis by Streptococcal Phage LysinSM1” (mBio, 2021).

Where only a bound is given, the exact number is not on record here.

In test [1] the target is purified human fibrinogen (human) (UniProt P02671). Kind of test: SPR; Reichert-4 SR7500DC; human fibrinogen (0.1 μM, sodium acetate pH 5.5) covalently immobilised on a PEG gold chip; analytes in PBS, 30 μl/min, 3 min association and dissociation; KD from response at equilibrium against concentration.
Chain of purified human fibrinogen (human) (P02671 36-866, chain 1 of 3): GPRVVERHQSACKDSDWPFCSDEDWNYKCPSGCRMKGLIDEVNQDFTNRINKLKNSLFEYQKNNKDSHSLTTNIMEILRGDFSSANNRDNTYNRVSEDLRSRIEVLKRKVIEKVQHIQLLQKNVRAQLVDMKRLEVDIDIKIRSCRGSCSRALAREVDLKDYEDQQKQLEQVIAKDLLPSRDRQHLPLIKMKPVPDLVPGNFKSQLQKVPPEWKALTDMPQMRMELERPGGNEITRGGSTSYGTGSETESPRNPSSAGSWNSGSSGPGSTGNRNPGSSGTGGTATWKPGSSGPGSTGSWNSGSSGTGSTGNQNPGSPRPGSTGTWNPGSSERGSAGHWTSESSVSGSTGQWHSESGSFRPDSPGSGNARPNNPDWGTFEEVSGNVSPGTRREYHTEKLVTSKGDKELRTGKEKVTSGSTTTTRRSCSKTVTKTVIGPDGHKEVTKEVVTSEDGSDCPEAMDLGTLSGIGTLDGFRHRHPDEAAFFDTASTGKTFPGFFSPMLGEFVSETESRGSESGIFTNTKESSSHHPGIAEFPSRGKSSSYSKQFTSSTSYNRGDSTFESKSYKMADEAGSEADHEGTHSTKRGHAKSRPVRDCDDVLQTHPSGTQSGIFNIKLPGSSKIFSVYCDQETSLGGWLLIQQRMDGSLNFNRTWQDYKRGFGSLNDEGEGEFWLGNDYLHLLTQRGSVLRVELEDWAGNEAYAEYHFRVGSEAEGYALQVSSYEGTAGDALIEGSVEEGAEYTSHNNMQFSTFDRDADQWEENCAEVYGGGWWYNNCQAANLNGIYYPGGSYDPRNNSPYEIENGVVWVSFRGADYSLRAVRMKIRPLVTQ
Chain of purified human fibrinogen (human) (P02675 45-491, chain 2 of 3, further chain): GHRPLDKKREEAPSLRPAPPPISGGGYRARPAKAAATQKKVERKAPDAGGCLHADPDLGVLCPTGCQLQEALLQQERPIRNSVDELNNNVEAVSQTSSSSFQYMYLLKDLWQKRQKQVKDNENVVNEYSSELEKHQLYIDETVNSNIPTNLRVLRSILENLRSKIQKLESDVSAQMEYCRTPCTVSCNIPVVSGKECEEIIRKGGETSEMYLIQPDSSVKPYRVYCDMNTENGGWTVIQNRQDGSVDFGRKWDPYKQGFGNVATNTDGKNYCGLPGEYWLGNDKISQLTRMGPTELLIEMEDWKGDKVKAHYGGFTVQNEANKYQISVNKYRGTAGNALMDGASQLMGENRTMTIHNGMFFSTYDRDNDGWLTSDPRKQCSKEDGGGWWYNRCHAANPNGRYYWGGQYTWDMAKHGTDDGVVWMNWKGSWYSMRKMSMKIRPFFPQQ
Chain of purified human fibrinogen (human) (P02679 27-453, chain 3 of 3, further chain): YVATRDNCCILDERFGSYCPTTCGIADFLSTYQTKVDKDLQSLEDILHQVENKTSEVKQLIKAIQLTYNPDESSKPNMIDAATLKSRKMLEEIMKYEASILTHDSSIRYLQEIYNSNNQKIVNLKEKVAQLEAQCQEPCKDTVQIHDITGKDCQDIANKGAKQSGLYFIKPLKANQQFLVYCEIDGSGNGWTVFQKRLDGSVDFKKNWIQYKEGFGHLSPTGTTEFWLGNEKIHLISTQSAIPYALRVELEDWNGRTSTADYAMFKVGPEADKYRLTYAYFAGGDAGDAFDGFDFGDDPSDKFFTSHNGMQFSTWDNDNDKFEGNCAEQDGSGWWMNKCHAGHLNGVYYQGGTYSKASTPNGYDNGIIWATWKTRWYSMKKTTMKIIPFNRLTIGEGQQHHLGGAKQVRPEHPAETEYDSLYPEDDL
For test [2], the target named is MalE-fibrinogen Aα534-610 (variant 8) (human). In words: ELISA; fibrinogen Aα variants (0.1 μM in PBS) immobilised in 96-well plates; FLAG-lysin or plasminogen in PBS-T over a range of concentrations, 1 h 37°C; anti-FLAG or anti-plasminogen; non-linear regression, apparent KD.
The target in test [3] is purified human fibrinogen (human) (UniProt P02671). Kind of test: ELISA; competition: immobilised fibrinogen (0.1 μM), 0 to 100 μM lysinSM1, lysin102-198 or lysin1-102, and 100 nM plasminogen; bound plasminogen detected with anti-plasminogen antibody.
The target in test [4] is MalE-fibrinogen Aα534-610 (variant 8) (human). Kind of test: SPR; lysinSM1, lysin102-198 or plasminogen on recombinant variant 8 (Aα534-610); otherwise as for fibrinogen. On the technique in general: SPR reads the build-up and loss of mass on a sensor chip optically.
The target in test [5] is T1, purified human fibrinogen (human, UniProt P02671 36-866; P02675 45-491; P02679 27-453, plasma fibrinogen hexamer (AαBβγ)2, 29 disulfides, glycosylated; fibrinopeptides A and B present; Aα taken as the circulating 610-residue form, Bβ starts at pyroGlu, γ as the major γA form (411 aa)). In words: SPR; plasminogen (100 nM) over immobilised fibrinogen after PBS, and again after bound lysinSM1 was removed with glycine buffer pH 2.0. To be noted: both partners purified.
T1 sequence (P02671 36-866, chain 1 of 3): as the sequence (P02671 36-866, chain 1 of 3) above
T1 sequence (P02675 45-491, chain 2 of 3): as the sequence (P02675 45-491, chain 2 of 3, further chain) above
T1 sequence (P02679 27-453, chain 3 of 3): as the sequence (P02679 27-453, chain 3 of 3, further chain) above

For test [6], the target named is T1, purified human fibrinogen. In words: SPR; Reichert-4 SR7500DC; human fibrinogen (0.1 μM, sodium acetate pH 5.5) covalently immobilised on a PEG gold chip; analytes in PBS, 30 μl/min, 3 min association and dissociation; KD from response at equilibrium against concentration. To be noted: both partners purified.
Test [7] has as its target MalE-fibrinogen Aα248-376 (variant 5) (human). In words: ELISA; fibrinogen Aα variants (0.1 μM in PBS) immobilised in 96-well plates; FLAG-lysin or plasminogen in PBS-T over a range of concentrations, 1 h 37°C; anti-FLAG or anti-plasminogen; non-linear regression, apparent KD.

As to “FLAG-tagged lysin102-198 (domain or fragment)”, the Kd in test [1] came to 23.2 µM; in test [2] it was 48 µM; in test [4], 17.3 µM. The percent inhibition of plasminogen binding to immobilised fibrinogen in test [3] is > 75%.

For “recombinant FLAG-tagged lysinSM1 (natural protein)”, the Kd in test [1] was 31.5 µM; in test [4], 32.3 µM. For the same molecule, the percent inhibition of plasminogen binding to immobilised fibrinogen in test [3] is > 75%.

B1: human plasminogen (natural protein, UniProt P00747 20-810, looked up)
chain: EPLDDYVNTQGASLFSVTKKQLGAGSIEECAAKCEEDEEFTCRAFQYHSKEQQCVIMAENRKSSIIIRMRDVVLFEKKVYLSECKTGNGKNYRGTMSKTKNGITCQKWSSTSPHRPRFSPATHPSEGLEENYCRNPDNDPQGPWCYTTDPEKRYDYCDILECEEECMHCSGENYDGKISKTMSGLECQAWDSQSPHAHGYIPSKFPNKNLKKNYCRNPDRELRPWCFTTDPNKRWELCDIPRCTTPPPSSGPTYQCLKGTGENYRGNVAVTVSGHTCQHWSAQTPHTHNRTPENFPCKNLDENYCRNPDGKRAPWCHTTNSQVRWEYCKIPSCDSSPVSTEQLAPTAPPELTPVVQDCYHGDGQSYRGTSSTTTTGKKCQSWSSMTPHRHQKTPENYPNAGLTMNYCRNPDADKGPWCFTTDPSVRWEYCNLKKCSGTEASVVAPPPVVLLPDVETPSEEDCMFGNGKGYRGKRATTVTGTPCQDWAAQEPHRHSIFTPETNPRAGLEKNYCRNPDGDVGGPWCYTTNPRKLYDYCDVPQCAAPSFDCGKPQVEPKKCPGRVVGGCVAHPHSWPWQVSLRTRFGMHFCGGTLISPEWVLTAAHCLEKSPRPSSYKVILGAHQEVNLEPHVQEIEVSRLFLEPTRKDIALLKLSSPAVITDKVIPACLPSPNYVVADRTECFITGWGETQGTFGAGLLKEAQLPVIENKVCNRYEFLNGRVQSTELCAGHLAGGTDSCQGDSGGPLVCFEKDKYILQGVTSWGLGCARPNKPGVYVRVSRFVTWIEGVMRNN
notes: plasminogen, human; also called purified plasminogen; recombinant human plasminogen
Take B1: the “KD after bound lysinSM1 was removed with glycine buffer pH 2.0” value in test [5] was determined as 1.68e-05 M. Further, the Kd in test [5] is 19.2 µM; in test [6], 10.4 µM; in test [7] it was 85 µM; in test [2] it was 18 µM; in test [4] it was 17.2 µM.
